Bridges are numbered along the chain shown (N, C = ends). Where no end group is shown, it is not given here. [ ]: non-standard residue; d: D form. The star is where a group is joined. Biotin = O=C1N[C@H]2[C@H](CS[C@H]2CCCCC(=O)*)N1; R8 = C=CCCCCCC[C@@](C)(N)C(=O)O; Cba = N[C@@H](CC1CCC1)C(=O)O; S5 = C=CCCC[C@](C)(N)C(=O)O
T1: recombinant HDMX (amino acids 1-490 of SEQ ID NO:104) (Homo sapiens, UniProt O15151)
T1 construct: thioredoxin (N, cleaved yes); S tag (N, cleaved yes); hexahistidine (N, cleaved yes); made in house; host or cells: E. coli (inferred: pET32-LIC vector, handled as described for HDM2 in BL21(DE3))
T1 sequence (O15151 1-490): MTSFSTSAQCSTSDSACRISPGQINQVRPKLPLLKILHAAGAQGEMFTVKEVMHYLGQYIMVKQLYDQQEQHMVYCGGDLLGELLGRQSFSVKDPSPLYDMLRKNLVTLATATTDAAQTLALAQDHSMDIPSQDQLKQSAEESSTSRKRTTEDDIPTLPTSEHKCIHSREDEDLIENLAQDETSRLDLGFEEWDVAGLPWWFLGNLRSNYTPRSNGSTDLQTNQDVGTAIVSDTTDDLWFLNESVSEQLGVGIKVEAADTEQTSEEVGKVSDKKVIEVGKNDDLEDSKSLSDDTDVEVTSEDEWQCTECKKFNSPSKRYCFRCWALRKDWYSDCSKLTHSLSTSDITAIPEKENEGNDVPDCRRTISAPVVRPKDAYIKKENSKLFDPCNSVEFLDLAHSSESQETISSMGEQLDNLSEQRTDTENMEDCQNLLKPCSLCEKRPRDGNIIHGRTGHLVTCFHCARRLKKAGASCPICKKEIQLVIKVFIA


Columns and labels:
[1] = target: T1, recombinant HDMX (amino acids 1-490 of SEQ ID NO:104); assay: Competitive streptavidin pull-down of biotinylated peptides with 1:1 recombinant HDM2/HDMX mixture, HDMX western; type: binding; conditions: biotinylated stapled peptide, 1:1 mixture of recombinant HDM2 and HDMX
[2] = target: T2, recombinant HDM2 (amino acids 17-125 of SEQ ID NO:103) (human, UniProt Q00987 17-125); assay: streptavidin pull-down of biotinylated peptide with recombinant HDM2 and HDMX (1:1 mixture per paragraph 301), western blot
T2 construct: also called MDM2; not shown: thrombin cleavage site (pET28a vector)
T2 sequence (Q00987 other isoform, or with tags, fused parts or gaps): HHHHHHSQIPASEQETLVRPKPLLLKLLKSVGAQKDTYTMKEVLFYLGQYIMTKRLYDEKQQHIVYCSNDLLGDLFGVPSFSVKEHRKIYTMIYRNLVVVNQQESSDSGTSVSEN

| Molecule | HDMX versus HDM2 binding selectivity [1] | further results |
| --- | --- | --- |
| LTF8EYWEQBXSAA (LTF[R8]EYWEQ[Cba][S5]SAA-NH2; staple 4-11; not fully specified (N-terminus); printed as LTF8EYWEQBXSAA) [ATSP-7041 A24E] | restored dual HDM2/HDMX binding selectivity | HDMX versus HDM2 binding selectivity ([1]; listed as SEQ ID NO:77): dual-selectivity to HDMX and HDM2 |
| SAH-p53-4 D21A: Formula (I) stapled peptide: [Xaa]w LSQETF, [Xaa]x ALWKLL, [Xaa]y EN (LSQETF[R8]ALWKLL[S5]EN-NH2; staple 7-14; not fully specified (N-terminus)) | HDMX selectivity over HDM2 | HDMX versus HDM2 binding selectivity ([1]; listed as SEQ ID NO:8): selectivity to HDMX |
| SAH-p53-4 D21E: Formula (I) stapled peptide: [Xaa]w LSQETF, [Xaa]x ELWKLL, [Xaa]y EN (LSQETF[R8]ELWKLL[S5]EN-NH2; staple 7-14; not fully specified (N-terminus)) | dual selectivity to HDMX and HDM2 |  |
| SAH-p53-4 D21R: Formula (I) stapled peptide: [Xaa]w LSQETF, [Xaa]x RLWKLL, [Xaa]y EN (LSQETF[R8]RLWKLL[S5]EN-NH2; staple 7-14; not fully specified (N-terminus)) | dual selectivity to HDMX and HDM2 |  |
| SAH-p53-4 E17R: Formula (I) stapled peptide: [Xaa]w LSQRTF, [Xaa]x DLWKLL, [Xaa]y EN (LSQRTF[R8]DLWKLL[S5]EN-NH2; staple 7-14; not fully specified (N-terminus)) | dual selectivity to HDMX and HDM2 |  |
| SAH-p53-4 E28R: Formula (I) stapled peptide: [Xaa]w LSQETF, [Xaa]x DLWKLL, [Xaa]y RN (LSQETF[R8]DLWKLL[S5]RN-NH2; staple 7-14; not fully specified (N-terminus)) | dual selectivity to HDMX and HDM2 |  |
| SAH-p53-4 K24A: Formula (I) stapled peptide: [Xaa]w LSQETF, [Xaa]x DLWALL, [Xaa]y EN (LSQETF[R8]DLWALL[S5]EN-NH2; staple 7-14; not fully specified (N-terminus)) | selectivity to HDM2 |  |
| SAH-p53-4 K24R: Formula (I) stapled peptide: [Xaa]w LSQETF, [Xaa]x DLWRLL, [Xaa]y EN (LSQETF[R8]DLWRLL[S5]EN-NH2; staple 7-14; not fully specified (N-terminus)) | dual selectivity to HDMX and HDM2 |  |
| SAH-p53-4 L14A: Formula (I) stapled peptide: [Xaa]w ASQETF, [Xaa]x DLWKLL, [Xaa]y EN (ASQETF[R8]DLWKLL[S5]EN-NH2; staple 7-14; also: biotinylated) | dual selectivity to HDMX and HDM2 |  |
| SAH-p53-4 L14E: Formula (I) stapled peptide: [Xaa]w ESQETF, [Xaa]x DLWKLL, [Xaa]y EN (ESQETF[R8]DLWKLL[S5]EN-NH2; staple 7-14; also: biotinylated) | selectivity to HDM2 |  |
| SAH-p53-4 L22A: Formula (I) stapled peptide: [Xaa]w LSQETF, [Xaa]x DAWKLL, [Xaa]y EN (LSQETF[R8]DAWKLL[S5]EN-NH2; staple 7-14; also: biotinylated) | dual selectivity to HDMX and HDM2 |  |
| SAH-p53-4 L22E: Formula (I) stapled peptide: [Xaa]w LSQETF, [Xaa]x DEWKLL, [Xaa]y EN (LSQETF[R8]DEWKLL[S5]EN-NH2; staple 7-14; also: biotinylated) | dual selectivity to HDMX and HDM2 |  |
| SAH-p53-4 L25A: Formula (I) stapled peptide: [Xaa]w LSQETF, [Xaa]x DLWKAL, [Xaa]y EN (LSQETF[R8]DLWKAL[S5]EN-NH2; staple 7-14; also: biotinylated) | dual selectivity to HDMX and HDM2 |  |
| SAH-p53-4 L25E: Formula (I) stapled peptide: [Xaa]w LSQETF, [Xaa]x DLWKEL, [Xaa]y EN (LSQETF[R8]DLWKEL[S5]EN-NH2; staple 7-14; not fully specified) | dual selectivity to HDMX and HDM2 |  |
| SAH-p53-4 L25R: Formula (I) stapled peptide: [Xaa]w LSQETF, [Xaa]x DLWKRL, [Xaa]y EN (LSQETF[R8]DLWKRL[S5]EN-NH2; staple 7-14; not fully specified) | dual selectivity to HDMX and HDM2 |  |
| SAH-p53-4 N29E: Formula (I) stapled peptide: [Xaa]w LSQETF, [Xaa]x DLWKLL, [Xaa]y EE (LSQETF[R8]DLWKLL[S5]EE-NH2; staple 7-14; not fully specified) | dual selectivity to HDMX and HDM2 |  |
| SAH-p53-4 N29R: Formula (I) stapled peptide: [Xaa]w LSQETF, [Xaa]x DLWKLL, [Xaa]y ER (LSQETF[R8]DLWKLL[S5]ER-NH2; staple 7-14; not fully specified (N-terminus)) | HDMX selectivity over HDM2 | HDMX versus HDM2 binding selectivity ([1]; listed as SEQ ID NO:29): selectivity to HDMX |
| SAH-p53-4 Q16A: Formula (I) stapled peptide: [Xaa]w LSAETF, [Xaa]x DLWKLL, [Xaa]y EN (LSAETF[R8]DLWKLL[S5]EN-NH2; staple 7-14; not fully specified) | dual selectivity to HDMX and HDM2 |  |
| SAH-p53-4 Q16E: Formula (I) stapled peptide: [Xaa]w LSEETF, [Xaa]x DLWKLL, [Xaa]y EN (LSEETF[R8]DLWKLL[S5]EN-NH2; staple 7-14; not fully specified (N-terminus)) | HDMX selectivity over HDM2 | HDMX versus HDM2 binding selectivity ([1]; listed as SEQ ID NO:32): selectivity to HDMX |
| SAH-p53-4 Q16R: Formula (I) stapled peptide: [Xaa]w LSRETF, [Xaa]x DLWKLL, [Xaa]y EN (LSRETF[R8]DLWKLL[S5]EN-NH2; staple 7-14; not fully specified) | dual selectivity to HDMX and HDM2 |  |
| SAH-p53-4 S15A: Formula (I) stapled peptide: [Xaa]w LAQETF, [Xaa]x DLWKLL, [Xaa]y EN (LAQETF[R8]DLWKLL[S5]EN-NH2; staple 7-14; not fully specified) | selectivity to HDM2 |  |
| SAH-p53-4 S15E: Formula (I) stapled peptide: [Xaa]w LEQETF, [Xaa]x DLWKLL, [Xaa]y EN (LEQETF[R8]DLWKLL[S5]EN-NH2; staple 7-14; not fully specified) | selectivity to HDM2 |  |
| SAH-p53-4 S15R: Formula (I) stapled peptide: [Xaa]w LRQETF, [Xaa]x DLWKLL, [Xaa]y EN (LRQETF[R8]DLWKLL[S5]EN-NH2; staple 7-14; not fully specified) | selectivity to HDM2 |  |
| SAH-p53-4 T18A: Formula (I) stapled peptide: [Xaa]w LSQEAF, [Xaa]x DLWKLL, [Xaa]y EN (LSQEAF[R8]DLWKLL[S5]EN-NH2; staple 7-14; not fully specified) | dual selectivity to HDMX and HDM2 |  |
| SAH-p53-4 T18E: Formula (I) stapled peptide: [Xaa]w LSQEEF, [Xaa]x DLWKLL, [Xaa]y EN (LSQEEF[R8]DLWKLL[S5]EN-NH2; staple 7-14; not fully specified) | dual selectivity to HDMX and HDM2 |  |
| SAH-p53-4 T18R: Formula (I) stapled peptide: [Xaa]w LSQERF, [Xaa]x DLWKLL, [Xaa]y EN (LSQERF[R8]DLWKLL[S5]EN-NH2; staple 7-14; not fully specified) | selectivity to HDM2 |  |
| LTF[R8]EYWAQE[S5]SAA-NH2 (staple 4-11; not fully specified; printed as LTF8EYWAQEXSAA, also called ATSP B26E; LTF8EYWAQEXSAA) [ATSP-7041 B26E] |  | binding result [2]: no binding |
| Biotin-LTF[R8]EYWAQC[S5]SAA-NH2 (staple 4-11; SMILES CC(C)C[C@H](NC(=O)CCCC[C@@H]1SC[C@@H]2NC(=O)N[C@@H]21)C(=O)N[C@H](C(=O)N[C@@H](Cc1ccccc1)C(=O)N[C@]1(C)CCCCCCC=CCCC[C@@](C)(C(=O)N[C@@H](CO)C(=O)N[C@@H](C)C(=O)N[C@@H](C)C(N)=O)NC(=O)[C@H](CS)NC(=O)[C@H](CCC(N)=O)NC(=O)[C@H](C)NC(=O)[C@H](Cc2c[nH]c3ccccc23)NC(=O)[C@H](Cc2ccc(O)cc2)NC(=O)[C@H](CCC(=O)O)NC1=O)[C@@H](C)O) [ATSP-7041 B26C] |  | binding result [2]: no binding |
